Values quoted from earlier work in patent US7547701B2, “Haloalkyl containing compounds as cysteine protease inhibitors” (Virobay, Inc., priority 2003, dated 2009).

Settings: in clinical trials

Substance: OKT3: murine monoclonal antibody directed towards CD-3 domain of activated T-cells
- patients administered OKT3 that produce antibodies versus the therapy: 20-40%
